# Experimental data as given in patent publication US20180243432A1.
# Target: human HLA-A2 MHC class I molecule on the surface of target cells with no C2 epitope-peptide delivered or added (human)
# Assay: flow cytometry, TCR STAR multimer staining of untreated (buffer only) target cells
substance,measurement,value
TCR CMV-pp65-PE STAR multimer reagent (Altor Bioscience Corp.),percent of cells stained,< 5%
